Data from paper doi:10.1101/2025.06.17.660173, “Twinfilin is a potent uncapper of actin capping protein and modulates actomyosin contractility in the C. elegans spermatheca” (bioRxiv, 2025).

Target: T1, biotinylated SNAP tagged C. elegans heterodimeric capping protein (CAP-1/CAP-2) (C. elegans, UniProt P34685 1-282; P34686 1-270, biotin on the SNAP tag (benzylguanine-biotin); the subunit that carries it is not stated | biotin on the SNAP tag (benzylguanine-biotin); the subunit that carries it is not stated)
T1 construct: CAP-1, a capping protein subunit of C. elegans; CAP-2, a capping protein subunit of C. elegans; The complex was anchored to streptavidin-coated coverslips by the biotin; also called SNAP-CP; CP; source: E. coli BL21 DE3, purified (HisTrap, Superose 6), labelled with benzylguanine-biotin; not shown: His tag (from the HisTrap purification)
T1 sequence (looked up) 1: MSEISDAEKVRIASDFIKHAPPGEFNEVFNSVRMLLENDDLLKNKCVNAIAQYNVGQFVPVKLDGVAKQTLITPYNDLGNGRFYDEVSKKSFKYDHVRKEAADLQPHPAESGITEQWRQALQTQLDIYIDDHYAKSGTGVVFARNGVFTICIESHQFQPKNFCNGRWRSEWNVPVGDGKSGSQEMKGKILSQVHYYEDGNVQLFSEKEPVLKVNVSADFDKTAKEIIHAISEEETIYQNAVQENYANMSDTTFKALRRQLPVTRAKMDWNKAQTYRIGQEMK
T1 sequence (looked up) 2: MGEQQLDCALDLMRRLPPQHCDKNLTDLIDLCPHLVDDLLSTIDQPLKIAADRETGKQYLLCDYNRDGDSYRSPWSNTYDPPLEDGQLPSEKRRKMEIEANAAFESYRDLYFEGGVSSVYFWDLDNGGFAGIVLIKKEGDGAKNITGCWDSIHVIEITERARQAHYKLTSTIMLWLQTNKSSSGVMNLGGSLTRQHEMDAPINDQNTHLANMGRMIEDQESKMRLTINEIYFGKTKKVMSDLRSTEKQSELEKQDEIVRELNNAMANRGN
Assay: mf-TIRF microscopy uncapping assay; biotinylated SNAP-CP anchored to the coverslip; preformed Alexa-488-labelled (15%) ADP-actin filaments captured; filament detachment followed with and without TWF-2 in TIRF buffer (10 mM imidazole pH 7.4, 50 mM KCl, 1 mM MgCl2, 1 mM EGTA, 0.2 mM ATP, 10 mM DTT); survival fitted to a single exponential
Settings: both partners purified

B1: C. elegans TWF-2 (6×His-tagged), recombinant (natural protein, UniProt Q20173 1-333, looked up)
chain: MACQTGIRANAALRNALNLGKQAKLRLIKIVVNNEEMTPNYEFAGTANWRDDWRACLPDCVDAYEPCFILFRLNTITEWVLITFVDDRAPVREKMLLAATCATFKSEFGQCYIEHEKHVTDLKDLTLNAFEAWLKAKTELGPMSEVERELHNAQQERAAIAHAGPQHMKGVAFPVDRNAEEALRQLASQKLSFVQLSVDTLNEAIKLEGTLESLEPSQLASKVPRDKPRYTFYNFDHTWEGVPQQCTLFIYSLPSSGSSIKERMLYSSCKGPFLSAAQNQYGVVITNKMEVDARDDLSEKALLEVIHPLPVEAPKQFSRPAPPRAGPRRITKV
notes: TWF-2, the sole twinfilin ortholog of C. elegans; also called twinfilin; C. elegans twinfilin; source: E. coli BL21 (pRare), purified (Ni-NTA, Superdex 75 Increase)
fold acceleration of uncapping of CP from actin filaments: > 90 fold
